{"source": "patent US6723697B2", "about": "“IL-16 antagonists” (Research Corporation Technologies, Inc., priority 1999, dated 2004)", "key": {"[1]": {"molecular_target": "T1, IL-16 (Mus musculus, UniProt O54824)", "T1 construct": "polyhistidine fusion protein containing the 119 C-terminal residues encoded by the previously reported murine cDNA; polyhistidine (cleaved yes); made in house", "T1 sequence (O54824 1204-1322)": "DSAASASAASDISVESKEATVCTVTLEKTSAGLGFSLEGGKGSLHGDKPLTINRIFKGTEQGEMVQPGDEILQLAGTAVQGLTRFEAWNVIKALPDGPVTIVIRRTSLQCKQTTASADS", "experiment": "IL-16-induced migration of human T-cells", "format": "cell-based", "conditions": "co-incubation of IL-16 and peptide"}, "[2]": {"system": "anti-CD4 antibody (OKT4)", "experiment": "OKT4-induced migration of T-cells", "format": "cell-based", "conditions": "OKT4 1 μg/ml, co-incubation"}, "[3]": {"molecular_target": "T2, HIV-1 gp120 (Human immunodeficiency virus type 1 group M subtype B, UniProt P04578)", "conditions": "gp120 5 μg/ml, co-incubation"}, "[4]": {"molecular_target": "T3, murine rIL-16 (Mus musculus, UniProt O54824)", "T3 construct": "polyhistidine fusion protein containing the 119 C-terminal residues encoded by the previously reported murine cDNA; polyhistidine (cleaved yes); made in house; host or cells: Escherichia coli strain HMS 174, vector pET16b", "T3 sequence (O54824 1204-1322)": "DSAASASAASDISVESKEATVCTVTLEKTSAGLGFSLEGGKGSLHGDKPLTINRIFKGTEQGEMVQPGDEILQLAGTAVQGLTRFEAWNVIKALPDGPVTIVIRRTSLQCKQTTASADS", "experiment": "murine rIL-16-stimulated murine splenocyte migration, modified Boyden chamber", "format": "cell-based", "conditions": "rIL-16 10^-9 M", "experimental": "(§1) Cell migration was assessed using a modified Boyden chamber. […] Cell migration is expressed as the mean % control migration.\n(§2) Results from multiple experiments were analyzed using Student's t test for paired variables, and Tukey's test for multiple variables. A P value<0.05 was considered significant.\nPeptide B (aa 341-352) includes the sequence WQCLLS (residues 344-349, SEQ ID NO:4) which is 100% conserved in all the species examined. Peptide A (aa 327-338) and peptide C (aa 351-362) correspond to the N-terminal and C-terminal flanks of peptide B, respectively. A random scrambled 12-residue peptide (LSKQKMVSREGT) designated peptide D (SEQ ID NO:20) was used a negative control for nonspecific effects of peptide administration on splenocyte motility. Criteria for the design of peptide D included overall hydrophilicity, neutral charge and no cysteine residues (to prevent possible dimer formation).\nMurine spleens were harvested from healthy 8-week male BALB/c mice (Jackson Laboratory). Splenocytes were isolated by grinding spleens between fiysted slides in M199 culture medium (M. A. Bioproducts), supplemented with 0.4% bovine serum albumin, 22 mM HEPES buffer, 100 with U/ml of penicillin, 100 μg/ml streptomycin (M199-HPS). Cells were washed and erytbrocytes were lysed in Gey's solution. Splenocytes were washed twice in M199, and resuspended to a final concentration of 2×10^6 cells/ml in RPMI1640 medium (BioWhittaker) supplemented with 10% FBS, 100 U/ml of penicillin and 100 μg/ml of streptomycin. By flow cytometry, 25% of the isolated splenocytes within the lymphocyte-cloud were CD4^+.\nRecombinant murine IL-16 was produced in Escherichia coli (strain HMS 174; Novagen) as a polyhistidine fusion protein containing the 119 C-terminal residues encoded by the previously reported murine cDNA (Keane et al., (1998) J. Immunol. 160: 5945-5954), using the bacterial expression vector pET16b (Novagen). The recombinant product corresponds to the secreted form of natural murine IL-16 following cleavage by caspase-3 (Zhang et al. (1998) J. Biol. Chem. 273:1144-1149). The rIL-16 was purified by metal chelation chromatography, and the polyhistidine tag was cleaved with factor Xa (New England Biolabs)."}, "[5]": {"molecular_target": "T4, rIL-16 (Mus musculus, UniProt O54824)", "T4 construct": "polyhistidine fusion protein containing the 119 C-terminal residues encoded by the previously reported murine cDNA; polyhistidine (cleaved yes); made in house; host or cells: Escherichia coli strain HMS 174, vector pET16b", "T4 sequence (O54824 1204-1322)": "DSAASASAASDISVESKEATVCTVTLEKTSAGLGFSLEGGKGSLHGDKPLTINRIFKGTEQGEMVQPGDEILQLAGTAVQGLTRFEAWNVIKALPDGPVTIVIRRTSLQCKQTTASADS", "experiment": "IL-2R (CD25) induction on rIL-16-stimulated murine splenocytes, flow cytometry", "format": "cell-based", "conditions": "for % IL-2R+ CELLS: IL-16 + peptide, concentration not given (10^-6 M or 10^-7 M)", "experimental": "Induction of IL-2R (CD25) on rIL-16-stimulated murine splenocytes was detected by staining with FITC-conjugated anti-mouse IL-2R Ab (PharMingen). Cells were fixed with 10% formalin and stored at 4° C. in the dark before analysis with a Becton Dickinson FACScan 440 flow cytometer. The % IL-2R^+ cells was determined by subtracting the % isotype control positive from the total % positive events.\nPeptides A (SEQ ID NO:15) and C (SEQ ID NO:19) were inhibitory at 10^−7 M, but not 10^−6 M. The negative control peptide D (SEQ ID NO:20) (10^−6 M) had no effect on rIL-16-stimulated IL-2R expression.\nMurine splenocytes were incubated in control buffer, rIL-16 alone, or rIL-16 plus the indicated peptide. IL-2R expression was determined by flow cytometry using FITC-conjugated anti-IL-2R antibody. The % IL-2R^+ was determined by subtracting the FITC-conjugated isotype control antibody binding from the FITC-conjugated anti-IL-2R antibody binding. Isotype control antibody binding ranged from 1% to 4%."}, "[6]": {"molecular_target": "T5, rIL-16 / GST-murine D3D4 fusion protein (Mus musculus, UniProt O54824)", "T5 construct": "murine IL-16 cDNA construct in pET-16b expressing the C-terminal 119 amino acids of IL-16; polyhistidine (pET-16b vector); made in house; host or cells: IL-16: coupled in vitro transcription-translation (TNT T7, Promega); GST-D3D4: E. coli, vector pGEX-5X.1", "T5 sequence (O54824 1205-1322 limits assumed)": "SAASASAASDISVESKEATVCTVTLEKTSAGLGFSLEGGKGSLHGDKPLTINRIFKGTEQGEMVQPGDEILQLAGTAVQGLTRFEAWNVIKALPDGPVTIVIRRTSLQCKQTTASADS", "experiment": "in vitro binding of 35S-labeled murine rIL-16 to GST-murine D3D4 fusion protein", "conditions": "each peptide 10^-5 M, 10 ug/ml", "experimental": "Complexes were isolated by centrifugation, then bound rIL-16 was released by boiling in SDS-PAGE buffer, resolved by SDS-PAGE, and detected by autoradiography. Specificity of the interaction between rIL-16 and D3D4 was assessed by competition with an excess of unlabeled rIL-16. ^35S-labeled rIL-16 incubated with GST (lane 1); ^35S-labeled rIL-16 incubated with GST-D3D4 (lane 2); ^35S-labeled rIL-16 plus excess unlabelled rIL-16 incubated with GST-D3D4 (lane 3); ^35S-labeled rIL-16 plus10 ug/ml peptide A (lane 4); ^35S-labeled rIL-16 plus 10 ug/ml peptide B (lane 5); ^35S-labeled rIL-16 plus 10 ug/ml peptide C (lane 6); ); ^35S-labeled rIL-16 plus 10 ug/ml peptide A and peptide B (lane 7). The arrow indicates the position of IL-16 on the gel. The identity of this band was re-confirmed by immunoblotting with anti-IL-16 antibody.\nRadiolabeled murine IL-16 was prepared by in vitro translation and transcription (TNT T7, Promega) of a murine IL-16 cDNA construct in pET-16b expressing the C-terminal 119 amino acids of IL-16. Each coupled transcription-translation reaction was conducted in medium supplemented with [^35S]methionine according to the manufacturer's instructions.\nA glutathione-S-transferase (GST)-murine D3D4 fusion protein was produced by subcloning the murine D3D4 domain cDNA sequences encoding the CD4 protein open reading frame from Phe^182 to Phe^372 into pGEX-5X.1 (Pharmacia). The GST-D3D4 fusion protein was purified according to the Pharmacia GST-fusion protein purification protocol using glutathione-conjugated Sepharose 4B beads in the presence of 2 mM dTT. […]\nTo investigate IL-16 interaction with the D3D4 of CD4, the GST-D3D4 fusion protein, or GST alone, was bound to the glutathione-conjugated Sepharose 4B beads. […] The GST-D3D4 or GST proteins were released from the beads by boiling in SDS gel loading buffer, and the supernatant was analyzed by 12% SDS-polyacrylamide gel electrophoresis (SDS-PAGE). The presence of ^35S-labeled mrIL16 was detected by autoradiography of the dried gel. […]"}, "[7]": {"molecular_target": "T3, murine rIL-16", "experiment": "IL-16-stimulated T-lymphocyte migration, human CD4 D4 point mutants", "format": "cell-based", "conditions": "human CD4 D4 wild type or point mutant, rIL-16 10^-9 M", "experimental": "Point mutations at Leu 348 and Leu 349 in human CD4 were prepared as follows.\nInitially 100 ng of wild type human CD4 cDNA (Richard Axel, Columbia University, N.Y.) contained within the mammalian expression vector pcDNA3.1(−) (Invitrogen, Carlsbad, Calif.) was subjected to the polymerase chain reaction (PCR) in the presence of 125 ng of each set of primer pairs. PCR conditions were as follows:\nThe time for the elongation step varied according to the relationship of 2 minutes per kilobase of plasmid DNA length. The product was then subjected to restriction digestion with the enzyme Dpn for 1 h. at 37° C. Dpn is specific for methylated nucleotides and therefore will only cut the original wide type CD4-plasmid DNA. The transformation reaction required the addition of 1 μl of the digest to 50 μl of Epicurean Blue Eschericia coli which was incubated on ice for 30 min. and finally heat shocked 42° C., 45 sec to seal the supercompent bacteria. The resultant bacteria culture was selected on ampicillin plates and sequenced to confirm mutagenesis.\nas §1, §2\n(FIGS. 10A and 10B). […] (FIGS. 11A and 11B)."}, "[8]": {"molecular_target": "T2, HIV-1 gp120", "conditions": "human CD4 point mutant", "experimental": "Cell migration was assessed using a modified Boyden chamber. (Center, et al., (1982) J. Immunol. 128:2563-2568; Cruikshank, et al., (1982) J. Immunol. 128:2569-2574). […] For blocking experiments, 10^−9 M murine rIL-16 with various concentrations of oligopeptides were mixed and placed in the lower well. The upper and lower wells were separated by 8 μm pore size nitrocellulose filter membrane (Neuro Probe). Following incubation (3 h, 37° C.), the membranes were removed, stained with hematoxylin, and dehydrated. Cell migration was quantified by counting the number of cells migrating beyond a depth of 40 μm. Counts were compared with control cells exposed to M199-HPS alone, which was normalized to 100%. Cell migration is expressed as the mean % control migration. All samples were tested in duplicate, with five high power fields counted in each duplicate."}}, "data": [{"molecule": "CLLS (OTHER INFORMATION: Description of Artificial Sequence:IL-16 antagonist peptide)", "values": [{"measurement": "IL-16-induced migration of human T-cells blocked", "setting": "[1]", "result": "approximately 90%"}, {"measurement": "effect on anti-CD4 antibody OKT4-induced migration", "setting": "[2]", "result": "unaffected"}, {"measurement": "effect on HIV-1 gp120-induced migration", "setting": "[3]", "result": "unaffected"}]}, {"molecule": "GDKVKMDSRIQV [peptide C, 12-residue peptide, aa 351-362 of mouse CD4 D4]", "values": [{"measurement": "inhibition of rIL-16-induced splenocyte migration", "setting": "[4]; peptide 10^-6 M", "result": "inhibit"}, {"measurement": "IL-16-inhibitory activity (block of murine rIL-16-stimulated murine splenocyte migration)", "setting": "[4]; peptide concentration not given", "result": "IL-16-inhibitory activity"}, {"measurement": "% IL-2R+ CELLS", "setting": "[5]; first line of the peptide's pair", "result": 20, "unit": "%"}, {"measurement": "% IL-2R+ CELLS", "setting": "[5]; second line of the peptide's pair", "result": 35, "unit": "%"}, {"measurement": "inhibition of IL-16-stimulated induction of IL-2R", "setting": "[5]; peptide 10^-7 M", "result": "inhibitory"}, {"measurement": "IL-16 binding to GST-D3D4 in the presence of peptide", "setting": "[6]", "result": "failed to reduce IL-16 binding"}]}, {"molecule": "NLTCEVWGPTSPKLMLSLKLENKEAKVSKREKAVWVLNPEAGMWNCLLSDSGQVLLESNIKVLPTWSTPVQPM (OTHER INFORMATION: Description of Artificial Sequence:IL-16 antagonist peptide, human CD4 D4 with glutamine 346 to asparagine) NLTCEVWGPTSPKLMLSLKLENKEAKVSKREKAVWVLNPEAGMWNCLLSDSGQVLLESNIKVLPTWSTPVQPM", "values": [{"measurement": "inhibition of IL-16-stimulated T-lymphocyte migration", "setting": "[7]", "result": "IL-16-inhibitory activity"}, {"measurement": "inhibition of IL-16-stimulated T-lymphocyte migration", "setting": "[7]; listed as human CD4 (Q346→N)", "result": "no loss in inhibition"}, {"measurement": "inhibition of HIV-1 gp120-stimulated T-lymphocytes", "setting": "[8]", "result": "no loss in inhibition"}]}]}
